Positions count from the first letter of the chain named.
B1: GST-tagged MtbXthA (enzyme)
chain: MPDGTIDGGHPQRPASPRLRSPLLRLATWNVNSIRTRLDRVLDWLGRADVDVLAMQETKCPDGQFPALPLFELGYDVAHVGFDQWNGVAIASRVGLDDVRVGFDGQPSWSGKPEVAATTEARALGATCGGIRVWSLYVPNGRALDDPHYTYKLDWLAALRDTAEGWLRDDPAAPIALMGDWNIAPTDDDVWSTEFFAGCTHVSEPERKAFNAIVDAQFTDVVRPFTPGPGVYTYWDYTQLRFPKKQGMRIDFILGSPALAARVMDAQIVREERKGKAPSDHAPVLVDLHAG
B2: GST-tagged MtbXthA^ID (interaction-defective triple mutant) (enzyme)
chain: B1 chain with S110A, G111L, K112A

How the values were obtained:
Test in all cases: SPR
MtbLigA^G614I = MtbLigA^G614I (M. tuberculosis, UniProt P9WNV1 1-691, G614I)
MtbLigA^G621I = MtbLigA^G621I (M. tuberculosis, UniProt P9WNV1 1-691, G621I)
MtbLigA^G639V = MtbLigA^G639V (M. tuberculosis, UniProt P9WNV1 1-691, G639V)
[1] = molecular target: Full-length His-tagged MtbLigA (M. tuberculosis, UniProt P9WNV1 1-691)

Binder	Kd (MtbLigA^G614I)	Kd (MtbLigA^G621I)	Kd (MtbLigA^G639V)	Kd [1]
B1	781 nM	154 nM	2770 nM	
B2			9010 nM	613 nM

— paper PMC7530888 (Nucleic Acids Research, 2020)
